This note sets out measurements from US20220380763A1, “NUCLEIC ACID DELIVERY ENHANCER” (NATIONAL UNIVERSITY CORPORATION KOCHI UNIVERSITY, priority 2019, published 2022).

Molecules are shown by their SMILES. Read-outs that look alike come from different tables or passages of the source. Numbered stars: 1 amine (or outer) side, 2 acyl side, 3 side chain; on linkers, the order of the positions; unused ones are H or OH. Square brackets hold non-standard residues; d marks the D form. Peptide text beside a SMILES is read from it. * marks the point of attachment. Pteroyl = Nc1nc2ncc(CNc3ccc(C(=O)*)cc3)nc2c(=O)[nH]1; γGlu = O=C(O)[C@H](CCC(=O)[*:2])N[*:1]; Dab = NCC[C@H](N)C(=O)O

The test system of one data set is S2-013 cells. The experiment in a line: Matrigel invasion assay. Format: cell-based, human. As to conditions: versus scrambled control siRNA and siRNA alone. As to the method: Each of the scrambled control siRNA, SNORA18 siRNA, NUP85 siRNA, WASF2 siRNA, and SNORA22 siRNA (all used in Example 5) with the folic acid-cationic oligopeptide complex added was added to the culture solution of S2-013 cells, and Matrigel invasion assay was performed after 48 hours.
4.0×10^4 cells were suspended in a serum-free medium and seeded in the upper chamber of a Matrigel Invasion Chamber (24-well plate, pore size: 8 μm, manufactured by Becton, Dickinson, and Company). A solvent containing 5% fetal bovine serum was added to the lower chamber. After the cells were incubated in the upper chamber for 20 hours, three independent areas were observed under a microscope, and the cells invading the lower chamber were counted. The same experiment was repeated three times, and the cell invasion ability of 52-013 cells into which each siRNA was taken up was compared.
The “*” denotes a significant difference at P<0.05 as compared to the control in the t-test.
Each of the scrambled control siRNA (SEQ ID NOs: 3 and 4), SNORA18 siRNA (SEQ ID NOs: 21 and 22), NUP85 siRNA (SEQ ID NOs: 23 and 24), WASF2 siRNA (SEQ ID NOs: 25 and 26), and SNORA22 siRNA (SEQ ID NOs: 27 and 28) was added with 2 equivalents of Dab8, Fol-Dab8A, or Fol-Dab8B to the culture solution of pancreatic cancer cell line S2-013 in culture. As a control, each of the control siRNA, SNORA18 siRNA, NUP85 siRNA, WASF2 siRNA, and SNORA22 siRNA was added alone to the culture solution of the S2-013 cells.
After 48 hours of culture, the Matrigel invasion assay was performed. In the Matrigel invasion assay, the number of cells that have migrated from the upper chamber to the lower chamber is shown. The “*” denotes a significant difference at P<0.05 as compared to the control in the t-test.

The test system of data set [1] is bovine pancreas-derived RNase A. The conditions noted are these: 1 or more equivalents; 10 nM siRNA, 37° C., 60 minutes. As to the method:
RNA-degrading enzyme resistance of the nucleic acid duplex was tested in the presence of a cationic oligopeptide.
In this Example, peptides were added to the annealed RNA duplex to form a complex, and the rate of RNA degradation was measured.
Subsequently, the mixture was kept at 95° C. for 5 minutes and then slowly cooled to 4° C. at −0.5° C./min.
Thereafter, 15 μL of 100 μg/mL bovine pancreas-derived RNase A (manufactured by F. Hoffmann-La Roche, Ltd.) was added with stirring at 37° C., and fluorescence intensity measurement was started to track changes over time (excitation wavelength: 490 nm; measurement wavelength: 520 nm; and measurement time: 60 minutes).

The subject of data set [2] is RNA duplex (siRNA, SEQ ID NO: 1 and 2). The conditions noted are these: for Tm: 4 μM nucleic acid duplex, 100 mM NaCl, pH 7.0; for ΔTm: versus no peptide (72.3). As to the method: The melting temperature of the nucleic acid duplex was measured in the presence and absence of the cationic oligopeptide or folic acid-cationic oligopeptide complex synthesized in Example 1.
In this Example, the cationic oligopeptide (Dab8) or the folic acid-cationic oligopeptide (Fol-Dab8A or Fol-Dab8B) was added to an annealed RNA duplex, and the melting temperature (Tm value) was measured. As the RNA duplex, an oligonucleotide pair consisting of the following sequences was used as an siRNA.
After 144 μL of 50 μM nucleic acid solution was prepared and kept at 95° C. for 5 minutes, it was slowly cooled to 4° C. at −0.5° C./min. The solution was added to a mixed solution of pH 7.0 buffer containing 200 mM NaCl and 20 mM Na2HPO4—NaH2PO4 in OTSUKA DISTILLED WATER, and 0.1 mM peptide aqueous solution, and samples were adjusted to a final concentration of 10 mM Na2HPO4—NaH2PO4, 100 mM NaCl, 4 μM nucleic acid duplex, and 0, 4, 8, 12, 16, and 20 μM peptide (0, 1, 2, 3, 4, and 5 equivalents, respectively).
The temperature was increased from 20° C. to 95° C. at 0.5° C./min, and the absorbance at 260 nm was measured to determine a melting curve. The absorbance at 320 nm was measured to remove background noise, and a melting curve was created by subtracting the absorbance at 320 nm from the absorbance at 260 nm, and the Tm value was determined by a median method.

For data set [3], the system named is S2-013 pancreatic cancer cells or HPNE normal pancreatic duct epithelial cells. As to conditions: chemically-modified Alexa488-labeled SNORA22 siRNA, 2 equivalents, overnight. An excerpt: Chemically-modified SNORA22 siRNA (SEQ ID NOs: 27 and 28) prepared in Example 7 was labeled with Alexa488 (Thermo Fisher Scientific Inc.) and added with the folic acid-cationic oligopeptide complex (Fol-Dab8B, 2 equivalents) to the culture solution of S2-013 pancreatic cancer cells or HPNE normal pancreatic duct epithelial cells (ATCC) in a 4-well chamber (Thermo Fisher Scientific Inc.) (5×10^4 cells/well).

Where [4] appears, read: chemically-modified NUP85 siRNA (SEQ ID NOs: 23 and 24) with 2 equivalents of peptide.
Setting [5] is: chemically-modified SNORA18 siRNA (SEQ ID NOs: 21 and 22) with 2 equivalents of peptide.
Setting [6] is: chemically-modified SNORA22 siRNA (SEQ ID NOs: 27 and 28) with 2 equivalents of peptide.
Where [7] appears, read: chemically-modified WASF2 siRNA (SEQ ID NOs: 25 and 26) with 2 equivalents of peptide.

In the case of `NCC[C@H](NC(=O)[C@H](CCN)NC(=O)[C@H](CCN)NC(=O)[C@H](CCN)NC(=O)[C@H](CCN)NC(=O)[C@H](CCN)NC(=O)[C@H](CCN)NC(=O)[C@H](CCN)NC(=O)CNC(=O)CNC(=O)CNC(=O)CC[C@H](NC(=O)c1ccc(NCc2cnc3nc(N)[nH]c(=O)c3n2)cc1)C(=O)O)C(N)=O` [Fol-Dab8A] ({Pteroyl-γGlu}-GGG[Dab][Dab][Dab][Dab][Dab][Dab][Dab][Dab]-NH2), the “invasion of S2-013 cells” value with S2-013 cells (setting [4]), with S2-013 cells (setting [5]), with S2-013 cells (setting [6]) and in the data set on S2-013 cells (setting [7]) was “significantly suppressed” throughout. Besides, the “rate of increase in fluorescence intensity (degradation of RNA duplex by RNase A)” value in data set [1] is given as “slower”. Also, the midpoint of thermal melting (Tm) in data set [2] (1 equivalent peptide) came out at 75.2 °C; in data set [2] (2 equivalents peptide), 76.8 °C; in data set [2] (3 equivalents peptide), 77.7 °C; in data set [2] (4 equivalents peptide), 78.7 °C; in data set [2] (5 equivalents peptide), 79.1 °C. In addition, the ΔTm in data set [2] (1 equivalent peptide) was 2.9; in data set [2] (2 equivalents peptide), 4.5; in data set [2] (3 equivalents peptide) it was 5.4; in data set [2] (4 equivalents peptide), 6.4; in data set [2] (5 equivalents peptide) it was 6.8.

As to `NCC[C@H](NC(=O)[C@H](CCN)NC(=O)[C@H](CCN)NC(=O)[C@H](CCN)NC(=O)[C@H](CCN)NC(=O)[C@H](CCN)NC(=O)[C@H](CCN)NC(=O)[C@H](CCN)NC(=O)CNC(=O)CNC(=O)CNC(=O)[C@H](CCC(=O)O)NC(=O)c1ccc(NCc2cnc3nc(N)[nH]c(=O)c3n2)cc1)C(N)=O` [Fol-Dab8B] (Pteroyl-EGGG[Dab][Dab][Dab][Dab][Dab][Dab][Dab][Dab]-NH2), the “invasion of S2-013 cells” value in the data set with S2-013 cells (setting [4]), in the data set with S2-013 cells (setting [5]), with S2-013 cells (setting [6]) and with S2-013 cells (setting [7]) was “significantly suppressed” throughout. The “rate of increase in fluorescence intensity (degradation of RNA duplex by RNase A)” value in data set [1] is given as “slower”. Moreover, in data set [3], the “uptake of SNORA22 siRNA into S2-013 pancreatic cancer cells relative to normal cells (HPNE)” value was roughly 3 fold. Moreover, the midpoint of thermal melting (Tm) in data set [2] (1 equivalent peptide) is 74.5 °C; in data set [2] (2 equivalents peptide), 76.4 °C; in data set [2] (3 equivalents peptide) it was 77.7 °C; in data set [2] (4 equivalents peptide) it was 78.5 °C; in data set [2] (5 equivalents peptide) it was 79.8 °C. Besides, the ΔTm in data set [2] (1 equivalent peptide) was found to be 2.2; in data set [2] (2 equivalents peptide), 4.1; in data set [2] (3 equivalents peptide), 5.4; in data set [2] (4 equivalents peptide) it was 6.2; in data set [2] (5 equivalents peptide) it was 7.5.
